Ends that are not written are not given here.
Target: T1, FLAG-FBXL12-FL (full length) (human, UniProt Q9NXK8 1-326)
T1 sequence (looked up): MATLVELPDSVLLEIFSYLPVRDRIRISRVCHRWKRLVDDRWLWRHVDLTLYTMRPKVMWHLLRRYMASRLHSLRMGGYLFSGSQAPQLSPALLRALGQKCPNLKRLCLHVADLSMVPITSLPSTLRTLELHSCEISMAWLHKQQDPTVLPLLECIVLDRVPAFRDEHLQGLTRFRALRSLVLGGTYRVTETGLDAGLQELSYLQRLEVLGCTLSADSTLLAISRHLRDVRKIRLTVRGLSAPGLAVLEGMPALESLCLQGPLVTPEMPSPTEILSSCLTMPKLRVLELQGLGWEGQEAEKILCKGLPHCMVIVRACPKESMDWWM
Test: pull-down

## MVSKRRLSKSEDKE (also: phosphorylated by CHK1, residues not given here) [FANCD2 N-terminal peptide WT, phosphorylated by CHK1]
  binding result: binds

Source: publication PMC10592106 (Molecular cell, 2023)
